Assay results: the Human Domainome abundance scans (Beltran et al. 2025)
± gives the uncertainty stated by the source.

B1: Bromodomain adjacent to zinc finger domain protein 2B, residues 1927 to 1982; numbered along this chain, Q9UIF8 (parent)
chain: KSIMKVYCQICRKGDNEELLLLCDGCDKGCHTYCHRPKITTIPDGDWFCPACIAKA
B2: E3 ubiquitin-protein ligase TRIM36, residues 208 to 252; numbered along this chain, Q9NQ86 (parent)
chain: KILMCPEHETERINMYCELCRRPVCHLCKLGGNHANHRVTTMSSA

Variants of: B1
Experiment: abundance fitness (aPCA) (normalised: wild type 0, dead -1); higher = more abundant; growth selection in yeast, the domain comes from the species named
Conditions: Homo sapiens

| Variant | abundance fitness |
| --- | --- |
| KSIMKVYCQICRKGDNEELLLLCDGCDKGCHTYCHRPKITTIPDGDWFCPACIDKA | -0.062 ± 0.12 |
| KSIMKVYCQICRKGDNEELLLLCDGCDKGCHTYCHRPKITTIPDGDWFCPACIEKA | 0.113 ± 0.1 |
| KSIMKVYCQICRKGDNEELLLLCDGCDKGCHTYCHRPKITTIPDGDWFCPACIFKA | -0.093 ± 0.14 |
| KSIMKVYCQICRKGDNEELLLLCDGCDKGCHTYCHRPKITTIPDGDWFCPACIGKA | -0.086 ± 0.072 |
| KSIMKVYCQICRKGDNEELLLLCDGCDKGCHTYCHRPKITTIPDGDWFCPACIHKA | -0.164 ± 0.13 |
| KSIMKVYCQICRKGDNEELLLLCDGCDKGCHTYCHRPKITTIPDGDWFCPACIIKA | -0.265 ± 0.13 |
| KSIMKVYCQICRKGDNEELLLLCDGCDKGCHTYCHRPKITTIPDGDWFCPACIKKA | -0.036 ± 0.12 |
| KSIMKVYCQICRKGDNEELLLLCDGCDKGCHTYCHRPKITTIPDGDWFCPACILKA | 0.032 ± 0.089 |
| KSIMKVYCQICRKGDNEELLLLCDGCDKGCHTYCHRPKITTIPDGDWFCPACIMKA | -0.309 ± 0.19 |
| KSIMKVYCQICRKGDNEELLLLCDGCDKGCHTYCHRPKITTIPDGDWFCPACINKA | -0.136 ± 0.17 |
| KSIMKVYCQICRKGDNEELLLLCDGCDKGCHTYCHRPKITTIPDGDWFCPACIPKA | 0.048 ± 0.1 |
| KSIMKVYCQICRKGDNEELLLLCDGCDKGCHTYCHRPKITTIPDGDWFCPACIQKA | 0.066 ± 0.11 |
| KSIMKVYCQICRKGDNEELLLLCDGCDKGCHTYCHRPKITTIPDGDWFCPACIRKA | -0.211 ± 0.073 |
| KSIMKVYCQICRKGDNEELLLLCDGCDKGCHTYCHRPKITTIPDGDWFCPACISKA | -0.082 ± 0.088 |
| KSIMKVYCQICRKGDNEELLLLCDGCDKGCHTYCHRPKITTIPDGDWFCPACITKA | -0.031 ± 0.1 |
| KSIMKVYCQICRKGDNEELLLLCDGCDKGCHTYCHRPKITTIPDGDWFCPACIVKA | -0.053 ± 0.09 |

| Variant | abundance fitness |
| --- | --- |
| KSIMKVYCQICRKGDNEELLLLCDGCDKGCHTYCHRPKITTIPDGDWFCPACIWKA | -0.229 ± 0.1 |
| KSIMKVYCQICRKGDNEELLLLCDGCDKGCHTYCHRPKITTIPDGDWFCPACIYKA | -0.102 ± 0.2 |
| KSIMKVYCQICRKGDNEELLLLCDGCDKGCHTYCHRPKITTIPDGDWFCPACIACA | -0.154 ± 0.3 |
| KSIMKVYCQICRKGDNEELLLLCDGCDKGCHTYCHRPKITTIPDGDWFCPACIAGA | 0.058 ± 0.48 |
| KSIMKVYCQICRKGDNEELLLLCDGCDKGCHTYCHRPKITTIPDGDWFCPACIAQA | -0.171 ± 0.36 |
| KSIMKVYCQICRKGDNEELLLLCDGCDKGCHTYCHRPKITTIPDGDWFCPACIAKC | -0.211 ± 0.23 |
| KSIMKVYCQICRKGDNEELLLLCDGCDKGCHTYCHRPKITTIPDGDWFCPACIAKD | -0.019 ± 0.2 |
| KSIMKVYCQICRKGDNEELLLLCDGCDKGCHTYCHRPKITTIPDGDWFCPACIAKG | -0.364 ± 0.21 |
| KSIMKVYCQICRKGDNEELLLLCDGCDKGCHTYCHRPKITTIPDGDWFCPACIAKM | -0.28 ± 0.36 |
| KSIMKVYCQICRKGDNEELLLLCDGCDKGCHTYCHRPKITTIPDGDWFCPACIAKP | -0.533 ± 0.26 |
| KSIMKVYCQICRKGDNEELLLLCDGCDKGCHTYCHRPKITTIPDGDWFCPACIAKQ | -0.176 ± 0.32 |
| KSIMKVYCQICRKGDNEELLLLCDGCDKGCHTYCHRPKITTIPDGDWFCPACIAKR | 0.174 ± 0.23 |
| KSIMKVYCQICRKGDNEELLLLCDGCDKGCHTYCHRPKITTIPDGDWFCPACIAKS | -0.317 ± 0.17 |
| KSIMKVYCQICRKGDNEELLLLCDGCDKGCHTYCHRPKITTIPDGDWFCPACIAKT | -0.155 ± 0.16 |
| KSIMKVYCQICRKGDNEELLLLCDGCDKGCHTYCHRPKITTIPDGDWFCPACIAKV | 0.045 ± 0.18 |
| KSIMKVYCQICRKGDNEELLLLCDGCDKGCHTYCHRPKITTIPDGDWFCPACIAKW | -0.331 ± 0.33 |

Variants of: B2
Experiment: as above
Conditions: Homo sapiens

| Variant | abundance fitness |
| --- | --- |
| KILMCPEHETERINMYCECCRRPVCHLCKLGGNHANHRVTTMSSA | 0.137 ± 0.067 |
| KILMCPEHETERINMYCELCRRPVCHLCKLGGNHANHRVTCMSSA | -0.112 ± 0.066 |
| KILMCPEHETERINMYCELCRRPVCHLCKLGGVHANHRVTTMSSA | 0.039 ± 0.055 |
| KILMCPEHETERIHMYCELCRRPVCHLCKLGGNHANHRVTTMSSA | 0.055 ± 0.11 |
| KILMCPEYETERINMYCELCRRPVCHLCKLGGNHANHRVTTMSSA | -0.983 ± 0.15 |
| KILMCPEHETERINMYCELCRRPVCHLCKLGGNHANHRVFTMSSA | -0.317 ± 0.11 |
| KILMCPEHETERINTYCELCRRPVCHLCKLGGNHANHRVTTMSSA | -0.08 ± 0.1 |
| KILMCPEHETERINMYCELCRRPVCHLCKLGGSHANHRVTTMSSA | 0.036 ± 0.048 |
| KILMCPEFETERINMYCELCRRPVCHLCKLGGNHANHRVTTMSSA | -0.795 ± 0.34 |
| KILMCPEHETERINMYCELCARPVCHLCKLGGNHANHRVTTMSSA | 0.002 ± 0.053 |
| KILMCPEHETERINMYCELCRRPVHHLCKLGGNHANHRVTTMSSA | -0.603 ± 0.12 |
| KILMCPEHETERINMPCELCRRPVCHLCKLGGNHANHRVTTMSSA | -0.111 ± 0.37 |
| KILMCPEHETERINMYCELCQRPVCHLCKLGGNHANHRVTTMSSA | -0.002 ± 0.11 |
| KILMCPEHETERINMYCELCRYPVCHLCKLGGNHANHRVTTMSSA | -0.265 ± 0.1 |
| KILMCPEVETERINMYCELCRRPVCHLCKLGGNHANHRVTTMSSA | -1.13 ± 0.073 |
| KILMCPEHETERINMYCEMCRRPVCHLCKLGGNHANHRVTTMSSA | 0.004 ± 0.07 |
| KILMCPEHETERINMYCELCRRPVCNLCKLGGNHANHRVTTMSSA | -0.215 ± 0.078 |
